Experimental data published in patent publication US20240029824A1 (University of Washington, published 2024).
Values belong to the binder of their own block, whether it stands above or below them.

Legend:
[1] = molecular target: T1, DHT03_variant_ABC-2 chain B; assay: native MS; loop-connectivity variant of DHT03, chains of one ABC heterotrimer
T1 chain: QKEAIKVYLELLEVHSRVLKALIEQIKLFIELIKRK

[2] = molecular target: T2, DHT03_variant_ABC-2 chain C; assay: as above
T2 chain: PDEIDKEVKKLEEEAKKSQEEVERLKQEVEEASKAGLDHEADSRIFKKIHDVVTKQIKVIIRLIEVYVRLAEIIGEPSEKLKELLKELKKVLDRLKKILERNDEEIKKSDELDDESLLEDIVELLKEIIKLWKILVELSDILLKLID

DHT08 chain B = molecular target: T3, DHT08 chain B; assay: co-expression, IMAC, SEC, native MS; chains of one ABC heterotrimer
T3 chain: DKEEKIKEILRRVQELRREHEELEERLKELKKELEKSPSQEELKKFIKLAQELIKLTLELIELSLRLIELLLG
Source text: (§1) Genes encoding 85 heterotrimers in a tricistronic expression vector were obtained, and the proteins were expressed in E. coli and purified via IMAC with only one chain having the 6×His-tag. Nine of the designs (FIG. 3a) had monodisperse SEC peaks (FIG. 3b), were almost exclusively ABC by nMS, and had good SAXS fits to the design models (Table 7). […] Eight of the designs are parallel heterotrimers, while DHTO9 is an antiparallel heterotrimer. […] For 3 other designs, only the ABC heterotrimer was determined to form by nMS (when the respective SEC fraction was analyzed) but the heterotrimer SEC peak was preceded by soluble aggregate that would make building with these constructs difficult downstream. We explored the dependence of cooperativity on connectivity between the three chains by changing the positions of the loops across different helices in DHT03, while keeping the rest of the interface intact. […] The ability to sustain alternate loop closures increases the number of heteromeric building blocks available for future nanostructure assembly applications and may enable rigid fusion of functional domains to the different termini available.
(§2) Samples were analyzed by online buffer exchange native mass spectrometry (nMS) to evaluate sample purity and accurately determine oligomeric states⁴². Multiple instruments were used as the analyses were carried out over the duration of the protein design process. The mass spectrometers used for detection were a Q Exactive™ UHMR modified with a surface-induced dissociation device and an Exactive™ Plus EMR modified with a selection quadrupole and a surface-induced dissociation device (Thermo Fisher Scientific)⁴³. The liquid chromatography systems used for the buffer exchange include a Vanquish™ Duo UHPLC and a Dionex™ Ultimate 3000 HPLC (Thermo Fisher Scientific). A heated electrospray ionization source (HESI-II, Thermo Fisher Scientific) with a spray voltage of ˜4 kV was used for ionization.

DHT08 chain C = molecular target: T4, DHT08 chain C; assay: as above
T4 chain: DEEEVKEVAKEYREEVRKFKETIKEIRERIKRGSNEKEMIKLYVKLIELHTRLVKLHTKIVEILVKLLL
Source text: as §1, §2

DHT06 chain B = molecular target: T5, DHT06 chain B; assay: as above
T5 chain: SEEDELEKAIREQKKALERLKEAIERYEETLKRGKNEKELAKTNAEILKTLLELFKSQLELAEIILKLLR
Source text: as §1, §2

DHT06 chain C = molecular target: T6, DHT06 chain C; assay: as above
T6 chain: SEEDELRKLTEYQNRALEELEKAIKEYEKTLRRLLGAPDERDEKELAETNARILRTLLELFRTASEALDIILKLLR
Source text: as §1, §2

[3] = molecular target: T7, DHT03 chain C (SEQ ID NO: 59); assay: X-ray crystal structure, 3.35 A
T7 chain: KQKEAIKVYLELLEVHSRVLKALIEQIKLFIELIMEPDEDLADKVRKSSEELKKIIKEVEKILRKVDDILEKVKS
Description: Purified DHT03_2arm_A21/B21/C (long) protein at a concentration of 41 mg/mL was used to conduct sitting drop, vapor-diffusion crystallization trials using the JCSG Core I-IV screens (NeXtal Biotechnologies). Crystals of DHT03_2arm_A21/B21/C long grew from drops consisting of 100 nL protein plus 100 nL of a reservoir solution consisting of 2M (NH4)2SO4, 0.1M sodium acetate pH4.6 at 18° C., and were cryoprotected by supplementing the reservoir solution with 2.2M sodium malonate pH5. Native diffraction data was collected at APS beamline APS-23-ID-B, indexed to P1 and reduced using XDS⁴⁸. The structure was phased by molecular replacement using Phaser™. The chain A of a set of ˜49 lowest energy predicted models from Rosetta™ were used as search models. Several of these models gave clear solutions. Chain B and Chain C were fitted manually in Coot™ and rigid body refinement by Phenix™. The following model building and refinement were done by Coot™ and Phenix™.

[4] = molecular target: T8, DHT03_2arm_A21/B21/C long chain B; assay: co-expression, SEC, native MS, SAXS; chains of one ABC heterotrimer
T8 chain: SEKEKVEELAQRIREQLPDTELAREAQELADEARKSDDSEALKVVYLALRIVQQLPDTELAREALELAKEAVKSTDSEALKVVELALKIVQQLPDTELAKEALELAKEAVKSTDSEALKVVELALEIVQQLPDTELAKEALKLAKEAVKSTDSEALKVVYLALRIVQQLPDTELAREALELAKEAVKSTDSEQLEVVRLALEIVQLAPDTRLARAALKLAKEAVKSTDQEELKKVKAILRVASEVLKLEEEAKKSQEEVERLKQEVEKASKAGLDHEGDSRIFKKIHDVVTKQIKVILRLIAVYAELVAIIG

[5] = molecular target: T9, DHT03_variant_AB-4 chain B; assay: native MS; loop-connectivity variant of DHT03, AB heterodimer
T9 chain: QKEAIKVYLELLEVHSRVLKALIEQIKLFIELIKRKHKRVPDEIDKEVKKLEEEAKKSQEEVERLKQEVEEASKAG

DHT09 chain B = molecular target: T10, DHT09 chain B; assay: co-expression, IMAC, SEC, native MS; chains of one ABC heterotrimer
T10 chain: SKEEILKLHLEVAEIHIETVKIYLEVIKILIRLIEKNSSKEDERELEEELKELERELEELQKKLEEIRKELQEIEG
Source text: as §1, §2

DHT09 chain C = molecular target: T11, DHT09 chain C; assay: as above
T11 chain: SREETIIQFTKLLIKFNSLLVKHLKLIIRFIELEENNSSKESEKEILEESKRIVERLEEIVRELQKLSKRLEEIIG
Source text: as §1, §2

[6] = molecular target: T12, DHT03_variant_AB-1 chain B; assay: native MS; loop-connectivity variant of DHT03, AB heterodimer
T12 chain: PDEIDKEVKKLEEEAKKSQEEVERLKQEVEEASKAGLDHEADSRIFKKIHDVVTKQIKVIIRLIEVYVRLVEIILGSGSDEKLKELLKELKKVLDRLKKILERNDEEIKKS

DHT10 chain B = molecular target: T13, DHT10 chain B; assay: co-expression, IMAC, SEC, native MS; chains of one ABC heterotrimer
T13 chain: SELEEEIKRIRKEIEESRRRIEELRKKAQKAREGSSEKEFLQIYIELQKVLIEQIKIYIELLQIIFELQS
Source text: as §1, §2

DHT10 chain C = molecular target: T14, DHT10 chain C; assay: as above
T14 chain: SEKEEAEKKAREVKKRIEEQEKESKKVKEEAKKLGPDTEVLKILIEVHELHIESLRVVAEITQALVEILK
Source text: as §1, §2

[7] = molecular target: T7, DHT03 chain C (SEQ ID NO: 59); assay: tricistronic expression, SEC, native MS; chains of one ABC heterotrimer
Source text: as §1
Samples were analyzed by online buffer exchange native mass spectrometry (nMS) to evaluate sample purity and accurately determine oligomeric states⁴². […]

[8] = molecular target: T15, DHT03_variant_ABCD-1 chain D; assay: native MS; loop-connectivity variant of DHT03, chains of one ABCD heterotetramer
T15 chain: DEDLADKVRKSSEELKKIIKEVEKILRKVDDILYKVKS

DHT07 chain B = molecular target: T16, DHT07 chain B; assay: co-expression, IMAC, SEC, native MS; chains of one ABC heterotrimer
T16 chain: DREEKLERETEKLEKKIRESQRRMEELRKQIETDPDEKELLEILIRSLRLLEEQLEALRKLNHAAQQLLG
Source text: as §1, §2

DHT07 chain C = molecular target: T17, DHT07 chain C; assay: as above
T17 chain: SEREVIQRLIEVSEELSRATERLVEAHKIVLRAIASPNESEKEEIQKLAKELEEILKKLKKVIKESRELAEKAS
Source text: as §1, §2

[9] = molecular target: T18, DHT03_variant_AB-2 chain B; assay: native MS; loop-connectivity variant of DHT03, AB heterodimer
T18 chain: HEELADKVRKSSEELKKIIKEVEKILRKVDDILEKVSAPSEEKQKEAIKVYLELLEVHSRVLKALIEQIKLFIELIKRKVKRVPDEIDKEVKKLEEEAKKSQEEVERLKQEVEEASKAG

[10] = molecular target: T19, DHT03_variant_AB-3 chain B; assay: as above
T19 chain: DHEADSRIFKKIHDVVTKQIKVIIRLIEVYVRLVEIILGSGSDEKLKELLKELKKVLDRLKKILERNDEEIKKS

Binder: HEELADEVRKSSEELKKIIEEVEKILRKVDDILYKVG (designed binder) [DHT03_variant_ABC-2 chain A]
binding result [1]: binds | binding result [2]: binds

B1: DHT08 chain A (designed binder)
chain: SKEEIEKELKKLKKELEELKREIEKSTKKLEEVRGSNSEKELIQIIKEQIEISERLLEISTRLLEIIIKLLG
binding result (DHT08 chain B): binds | binding result (DHT08 chain C): binds

B2: DHT06 chain A (designed binder)
chain: DEKELAKTNAEILKTLLELFEAESRLQEIILKLLERPDEKEEDELKRALERLKEALERLEEAIKRYEETLKRLL
binding result (DHT06 chain B): binds | binding result (DHT06 chain C): binds

B3: DHT03_2arm_A21/B21/C long chain A (designed binder)
chain: SEKEKVEELAQRIREQLPDTELAREAQELADEARKSDDSEALKVVYLALRIVQQLPDTELAREALELAKEAVKSTDSEALKVVELALKIVQQLPDTELAKEALKLAKEAVKSTDSEALKVVELALEIVQQLPDTELAKEALELAEEAVKSTDSEALKVVKLALEIVQQLPDTELAREALELAKEAVKSTDSEALKVVYLALRIVQQLPDTELARLALELAKKAVEMTAQEVLEIARAALKAAQAFPNTELAELMLRLAEVAARVMKELERNDEEIKKSDELDDESLLEDIVELLKEIIKLWKILVEVSDVMLKLIS
binding result [3]: binds | binding result [4]: binds

B4: DHT03_variant_AB-4 chain A (designed binder)
chain: DHEADSRIFKKIHDVVTKQIKVIIRLIEVYVRLVEIILGSGSDEKLKELLKELKKVLDRLKKILERNDEEIKKSDELDDESLLEDIVELLKEIIKLWKILVELSDILLKLIGGDDKVRKSSEELKKIIKEVEKILRKVDDILYKVS
binding result [5]: binds

B5: DHT09 chain A (designed binder)
chain: SEDEDLIRSVRVIQKSVEIILEMVKIIQELLKSTSEEELKELLKKLKRLIEKLEELLRQYEELLKKIKG
binding result (DHT09 chain B): binds | binding result (DHT09 chain C): binds

The next lines start with the values.

binding result [6]: binds
B6: DHT03_variant_AB-1 chain A (designed binder)
chain: DESLLEDIVELLKEIIKLWKILVELSDILLKLIGGDDKVRKSSEELKKIIKEVEKILRKVDDILYKVSAPSEEKQKEAIKVYLELLEVHSRVLKALIEQIKLFIELIKR

binding result (DHT10 chain B): binds | binding result (DHT10 chain C): binds
B7: DHT10 chain A (designed binder)
chain: SEEEELKKLQEEIKKLKKQVERLEKESKELEKRLEKSPSEEIAKELLRITAELVEISEELAEATKRLLEIAG

binding result [7]: binds | binding result [8]: binds
B8: DHT03 chain A (designed binder)
chain: PEEEKLKELLKELKKVLDRLKKILERNDEEIKKSDELDDESLLEDIVELLKEIIKLWKILVELSDILLKLIS

binding result (DHT07 chain B): binds | binding result (DHT07 chain C): binds
B9: DHT07 chain A (designed binder)
chain: SEKELIQLYVEAQELYAEAFELQVEIFKLLVKILSANSPKDEKEKIEKRIEEVQKRIKEIQERLQEIQKRLEEAG

binding result [9]: binds
B10: DHT03_variant_AB-2 chain A (designed binder)
chain: DHEADSRIFKKIHDVVTKQIKVIIRLIEVYVRLVEIILGSGSDEKLKELLKELKKVLDRLKKILERNDEEIKKSDELDDESLLEDIVELLKEIIKLWKILVELSDILLKLID

binding result [10]: binds
B11: DHT03_variant_AB-3 chain A (designed binder)
chain: DESLLEDIVELLKEIIKLWKILVELSDILLKLIGGDDKVRKSSEELKKIIKEVEKILRKVDDILYKVSAPSEEKQKEAIKVYLELLEVHSRVLKALIEQIKLFIELIKRKHKRVPDEIDKEVKKLEEEAKKSQEEVERLKQEVEEASKAG
